The values below come from patent USRE48267E1, “Variants of C-type natriuretic peptide” (priority 2009, dated 2020).

Where a SMILES comes first, the peptide text is derived from it. Bridges are numbered along the chain shown (N, C = ends). Where no end group is shown, it is not given here. [ ]: non-standard residue; d: D form. PEO12 = PEO12, 0.6 kDa, monodispersed; PEO24 = PEO24, 1.2 kDa, monodispersed; Tle = CC(C)(C)[C@H](N)C(=O)O

The target of one data set is Recombinant human NEP (Homo sapiens, UniProt P08473). Description: in vitro NEP cleavage assay (disappearance of non-cleaved CNP variant). Particulars: for NEP Cleavage (t1/2, min): pH 7. How it is done: To determine the effects of amino acid substitutions, amino acid extensions, backbone modifications, side chain modifications and PEGylation on the susceptibility of CNP variants to neutral endopeptidase (NEP) cleavage, peptide cleavage assays were carried out using an in vitro assay that monitored disappearance of the non-cleaved CNP variant.
Recombinant human NEP (1 ug/mL final concentration) was added to 100 uM CNP variant diluted in 0.1 M Tris, pH 7. The reaction mixture was incubated at 37° C. for various periods of time, and the reaction was quenched with EDTA (10 mM final) followed by heat denaturation. The reaction mixture was reduced and then the reaction products were analyzed using HPLC and mass spectroscopy. The half-life of the CNP variant was calculated based on the disappearance of intact CNP variant over time.

For data set [1], the target named is T1, NPR-B (natriuretic peptide receptor B), murine, expressed endogenously on NIH3T3 cells (murine, UniProt Q6VVW5 17-1047).
T1 sequence (looked up): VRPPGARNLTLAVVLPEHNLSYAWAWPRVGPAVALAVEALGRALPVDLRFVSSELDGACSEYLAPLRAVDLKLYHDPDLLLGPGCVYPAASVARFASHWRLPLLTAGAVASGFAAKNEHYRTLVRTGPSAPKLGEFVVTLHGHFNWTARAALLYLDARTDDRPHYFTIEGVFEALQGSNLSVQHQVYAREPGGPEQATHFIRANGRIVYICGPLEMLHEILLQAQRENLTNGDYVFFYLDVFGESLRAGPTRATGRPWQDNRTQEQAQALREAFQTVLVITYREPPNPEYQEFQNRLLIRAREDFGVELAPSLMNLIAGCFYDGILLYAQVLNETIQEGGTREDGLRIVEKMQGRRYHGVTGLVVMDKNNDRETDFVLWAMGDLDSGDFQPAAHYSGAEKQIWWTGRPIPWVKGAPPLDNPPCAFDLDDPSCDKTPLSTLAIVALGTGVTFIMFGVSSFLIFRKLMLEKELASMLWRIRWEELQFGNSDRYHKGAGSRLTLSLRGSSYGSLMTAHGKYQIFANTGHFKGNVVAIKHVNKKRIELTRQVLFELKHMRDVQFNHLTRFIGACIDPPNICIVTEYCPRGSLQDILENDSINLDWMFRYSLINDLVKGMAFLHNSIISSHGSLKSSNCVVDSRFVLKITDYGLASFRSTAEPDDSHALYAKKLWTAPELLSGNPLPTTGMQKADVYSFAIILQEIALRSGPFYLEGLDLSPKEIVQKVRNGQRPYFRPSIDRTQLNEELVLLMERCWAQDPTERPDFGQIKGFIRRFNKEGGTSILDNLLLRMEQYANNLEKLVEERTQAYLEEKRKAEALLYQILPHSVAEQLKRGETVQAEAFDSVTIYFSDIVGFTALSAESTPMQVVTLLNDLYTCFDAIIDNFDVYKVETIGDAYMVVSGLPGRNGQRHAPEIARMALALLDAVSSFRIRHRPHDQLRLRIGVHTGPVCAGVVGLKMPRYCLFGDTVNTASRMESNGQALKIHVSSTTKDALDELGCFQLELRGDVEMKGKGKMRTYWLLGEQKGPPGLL
Nature of the data set: cell-based or functional assay.

Recombinant human NEP, sequence (P08473 whole entry): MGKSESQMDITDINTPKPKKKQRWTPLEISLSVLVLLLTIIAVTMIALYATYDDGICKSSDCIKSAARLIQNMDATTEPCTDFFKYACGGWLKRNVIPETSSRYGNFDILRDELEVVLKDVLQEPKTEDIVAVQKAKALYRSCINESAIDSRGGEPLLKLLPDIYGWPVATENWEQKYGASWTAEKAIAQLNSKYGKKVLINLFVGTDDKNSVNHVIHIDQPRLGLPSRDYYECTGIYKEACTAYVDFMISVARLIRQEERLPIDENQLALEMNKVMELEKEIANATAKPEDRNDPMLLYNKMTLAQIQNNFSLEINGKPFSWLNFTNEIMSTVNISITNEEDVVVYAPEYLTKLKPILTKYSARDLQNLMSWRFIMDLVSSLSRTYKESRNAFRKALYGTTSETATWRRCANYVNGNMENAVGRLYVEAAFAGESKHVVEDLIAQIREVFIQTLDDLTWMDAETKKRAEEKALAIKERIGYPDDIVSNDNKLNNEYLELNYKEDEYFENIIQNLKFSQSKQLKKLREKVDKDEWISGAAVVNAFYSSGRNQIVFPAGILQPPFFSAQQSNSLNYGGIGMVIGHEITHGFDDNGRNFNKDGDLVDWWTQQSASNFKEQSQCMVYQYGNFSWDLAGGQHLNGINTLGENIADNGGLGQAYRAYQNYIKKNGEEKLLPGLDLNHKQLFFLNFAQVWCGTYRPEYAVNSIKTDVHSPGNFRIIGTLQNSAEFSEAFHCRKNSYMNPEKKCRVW

As for `CC[C@H](C)[C@@H]1NC(=O)[C@H](CCCNC(=N)N)NC(=O)[C@H](CC(=O)O)NC(=O)[C@H](CC(C)C)NC(=O)[C@H](CCCCN)NC(=O)[C@H](CC(C)C)NC(=O)[C@H](C(C)(C)C)NC(=O)[C@H](Cc2ccccc2)NC(=O)[C@@H](NC(=O)CNC(=O)[C@H](CCCCN)NC(=O)[C@H](CO)NC(=O)[C@H](CC(C)C)NC(=O)CN)CSSC[C@@H](C(=O)O)NC(=O)CNC(=O)[C@H](CC(C)C)NC(=O)CNC(=O)[C@H](CO)NC(=O)[C@H](CCSC)NC(=O)[C@H](CO)NC(=O)CNC1=O` [Analog F] (H-GLSKGCF[Tle]LKLDRIGSMSGLGC-OH; disulfide 6-22), the “resistance to cleavage at the Cys6-Phe7 bond relative to wtCNP22” value at Recombinant human NEP is on record as “resistance or improved resistance”.
In the case of `CC[C@H](C)[C@@H]1NC(=O)[C@H](CCCNC(=N)N)NC(=O)[C@H](CC(=O)O)NC(=O)[C@H](CC(C)C)NC(=O)[C@H](CCCCN)NC(=O)[C@H](CC(C)C)NC(=O)CNC(=O)[C@H](Cc2ccccc2)NC(=O)[C@@H](NC(=O)CNC(=O)[C@H](CCCNC(=N)N)NC(=O)[C@H](CO)NC(=O)[C@H](CC(C)C)NC(=O)CNC(=O)[C@H](CCCNC(=N)N)NC(=O)[C@H](CCCNC(=N)N)NC(=O)[C@H](CC(N)=O)NC(=O)[C@H](C)NC(=O)CN)CSSC[C@@H](C(=O)O)NC(=O)CNC(=O)[C@H](CC(C)C)NC(=O)CNC(=O)[C@H](CO)NC(=O)[C@H](CCSC)NC(=O)[C@H](CO)NC(=O)CNC1=O` [Analog AY] (H-GANRRGLSRGCFGLKLDRIGSMSGLGC-OH; disulfide 11-27), the “resistance to NEP cleavage (in words)” value at Recombinant human NEP was “same lability to NEP hydrolysis as CNP22”.
On to “PEG20K-CNP22: CNP22 conjugated at the N-terminus to polydispersed PEG20K”, for which the “NEP Cleavage (t1/2, min)” value with Recombinant human NEP is given as >>160 min.
In the case of “PEG5K-CNP22: CNP22 conjugated at the N-terminus to polydispersed PEG5K”, in the data set with Recombinant human NEP, the “resistance to NEP cleavage (in words)” value was “resistant to NEP degradation over the assay period of 160 minutes” and the “NEP Cleavage (t1/2, min)” value was >>160 min.
PEO12-GANQQGLSRGCFGLKLDRIGSMSGLGC (ends and bridges not checked) [PEO12-GANQQ-CNP22, K4R]: in data set [1], the “cGMP response rel. to 1 uM CNP22; 10 nM peptide, NIH3T3 cells” value is 30 rel. to 1 uM CNP22 (100) and the “cGMP response rel. to 1 uM CNP22; 1 uM peptide, NIH3T3 cells” value is 78 rel. to 1 uM CNP22 (100).
Turning to PEO12-GLSRGCFGLKLDRIGSMSGLGC (ends and bridges not checked) [PEO12-CNP22, K4R], in data set [1], the “cGMP response rel. to 1 uM CNP22; 10 nM peptide, NIH3T3 cells” value is 13 rel. to 1 uM CNP22 (100) and the “cGMP response rel. to 1 uM CNP22; 1 uM peptide, NIH3T3 cells” value is 44 rel. to 1 uM CNP22 (100).
The matching figures for {PEO4‑(PEO12)3 (branched)}-GLSKGCFGLKLDRIGSMSGLGC (ends and bridges not checked) [PEO4-(PEO12)3 (branched)-CNP22]: 17 rel. to 1 uM CNP22 (100) and 52 rel. to 1 uM CNP22 (100).
For PEO24-GLSRGCFGLKLDRIGSMSGLGC (ends and bridges not checked) [PEO24-CNP22, K4R] the same measures were 15 rel. to 1 uM CNP22 (100) and 56 rel. to 1 uM CNP22 (100).
The matching figures for PEO12-ERGLSRGCFGLKLDRIGSMSGLGC (ends and bridges not checked) [PEO12-ER-CNP22, K4R]: 20 rel. to 1 uM CNP22 (100) and 92 rel. to 1 uM CNP22 (100).
Take PEO24-GANSSGLSRGCFGLKLDRIGSMSGLGC (ends and bridges not checked) [PEO24-GANSS-CNP22, K4R]: in data set [1], the “cGMP response rel. to 1 uM CNP22; 10 nM peptide, NIH3T3 cells” value was 8 rel. to 1 uM CNP22 (100) and the “cGMP response rel. to 1 uM CNP22; 1 uM peptide, NIH3T3 cells” value is 46 rel. to 1 uM CNP22 (100).
The matching figures for PEO24-GLSKGCFGLKLDRIGSMSGLGC (ends and bridges not checked) [PEO24-CNP22]: 8 rel. to 1 uM CNP22 (100) and 46 rel. to 1 uM CNP22 (100).
As to {PEG 1 kDa}-GLSKGCFGLKLDRIGSMSGLGC (ends and bridges not checked; also: PEG polydispersed) [PEG1K-CNP22], in data set [1], the “cGMP response rel. to 1 uM CNP22; 10 nM peptide, NIH3T3 cells” value is 15 rel. to 1 uM CNP22 (100) and the “cGMP response rel. to 1 uM CNP22; 1 uM peptide, NIH3T3 cells” value is 68 rel. to 1 uM CNP22 (100).
For PEO24-GANQQGLSRGCFGLKLDRIGSMSGLGC (ends and bridges not checked) [PEO24-GANQQ-CNP22, K4R] the same measures were 16 rel. to 1 uM CNP22 (100) and 73 rel. to 1 uM CNP22 (100).
For PEO12-RGLSRGCFGLKLDRIGSMSGLGC (ends and bridges not checked) [PEO12-R-CNP22, K4R] the same measures were 23 rel. to 1 uM CNP22 (100) and 93 rel. to 1 uM CNP22 (100).
For PEO24-RGLSRGCFGLKLDRIGSMSGLGC (ends and bridges not checked) [PEO24-R-CNP22, K4R] the same measures were 15 rel. to 1 uM CNP22 (100) and 75 rel. to 1 uM CNP22 (100).
Take PEG2K-CFGLKLDRIGSMSGLGC (ends and bridges not checked) [PEG2K-CNP17]: in data set [1], the “cGMP response rel. to 1 uM CNP22; 10 nM peptide, NIH3T3 cells” value is 5 rel. to 1 uM CNP22 (100) and the “cGMP response rel. to 1 uM CNP22; 1 uM peptide, NIH3T3 cells” value is 50 rel. to 1 uM CNP22 (100).
For PEO24-GANRRGLSRGCFGLKLDRIGSMSGLGC (ends and bridges not checked) [PEO24-GANRR-CNP22(K4R)] the same measures were 28 rel. to 1 uM CNP22 (100) and 82 rel. to 1 uM CNP22 (100).
For GLSKGCFGLKLDRIGSMSGLGC (not fully specified (N-terminus); ends and bridges not checked) [(PEO12)-Biotin-CNP22] the same measures were 19 rel. to 1 uM CNP22 (100) and 81 rel. to 1 uM CNP22 (100).
The matching figures for PEG1K-GANRRGLSRGCFGLKLDRIGSMSGLGC (ends and bridges not checked) [PEG1K-GANRR-CNP22(K4R)]: 15 rel. to 1 uM CNP22 (100) and 56 rel. to 1 uM CNP22 (100).
Take PEO12-GANSSGLSRGCFGLKLDRIGSMSGLGC (ends and bridges not checked) [PEO12-GANSS-CNP22, K4R]: in data set [1], the “cGMP response rel. to 1 uM CNP22; 10 nM peptide, NIH3T3 cells” value was 8 rel. to 1 uM CNP22 (100) and the “cGMP response rel. to 1 uM CNP22; 1 uM peptide, NIH3T3 cells” value was 52 rel. to 1 uM CNP22 (100).
The matching figures for PEG2K-GANRRGLSRGCFGLKLDRIGSMSGLGC (ends and bridges not checked) [PEG2K-GANRR-CNP22, K4R]: 15 rel. to 1 uM CNP22 (100) and 45 rel. to 1 uM CNP22 (100).
Turning to PEO24-ERGLSRGCFGLKLDRIGSMSGLGC (ends and bridges not checked) [PEO24-ER-CNP22, K4R], in data set [1], the “cGMP response rel. to 1 uM CNP22; 10 nM peptide, NIH3T3 cells” value was 6 rel. to 1 uM CNP22 (100) and the “cGMP response rel. to 1 uM CNP22; 1 uM peptide, NIH3T3 cells” value was 60 rel. to 1 uM CNP22 (100).
The matching figures for PEO12-GLSKGCFGLKLDRIGSMSGLGC (ends and bridges not checked) [PEO12-CNP22]: 12 rel. to 1 uM CNP22 (100) and 57 rel. to 1 uM CNP22 (100).
The matching figures for PEO12-GANRRGLSRGCFGLKLDRIGSMSGLGC (ends and bridges not checked) [PEO12-GANRR-CNP22(K4R)]: 40 rel. to 1 uM CNP22 (100) and 99 rel. to 1 uM CNP22 (100).
